One molecule from publication PMC9482650, “Quantitative fragmentomics allow affinity mapping of interactomes” (Nature Communications, 2022) can be followed below.

The pKd is the negative decadic logarithm of the Kd, by convention in mol/L.

Test in all cases: holdup assay
Details in all cases: plain residues with an end cap or a label only (N-terminal biotin on a linker: none)

Assay [1] has as its target T1, INTU, Q9ULD6.
T1 sequence (Q9ULD6 180-273, limits assumed, looked up): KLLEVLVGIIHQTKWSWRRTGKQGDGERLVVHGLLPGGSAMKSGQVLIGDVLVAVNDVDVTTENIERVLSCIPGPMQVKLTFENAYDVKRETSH

Assay [2] concerns the target CNKSR3, Q6P9H4.
For assay [3], the target named is T2, PDZD2_6, O15018.
T2 sequence (O15018 2745-2839, limits assumed, looked up): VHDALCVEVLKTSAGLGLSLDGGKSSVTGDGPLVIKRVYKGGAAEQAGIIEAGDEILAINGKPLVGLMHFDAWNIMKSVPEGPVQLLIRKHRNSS

For assay [4], the target named is T3, PDZD7_2, Q9H5P4.
T3 sequence (Q9H5P4 205-303, limits assumed, looked up): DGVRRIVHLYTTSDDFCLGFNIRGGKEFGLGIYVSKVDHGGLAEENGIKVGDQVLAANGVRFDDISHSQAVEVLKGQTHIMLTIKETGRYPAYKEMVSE

Assay [5] has as its target MAGI3_5, Q5TCQ9.
The target of assay [6] is PTPN13_2, Q12923.
Chain of PTPN13_2, Q12923 (Q12923 1363-1462): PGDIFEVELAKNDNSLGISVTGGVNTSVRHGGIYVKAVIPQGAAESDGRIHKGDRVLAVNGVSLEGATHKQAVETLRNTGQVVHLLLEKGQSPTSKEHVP
The target of assay [7] is MAGI1_6, Q96QZ7.
Chain of MAGI1_6, Q96QZ7 (Q96QZ7 1146-1238): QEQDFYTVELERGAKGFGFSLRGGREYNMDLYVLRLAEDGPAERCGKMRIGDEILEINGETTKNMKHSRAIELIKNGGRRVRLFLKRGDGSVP
In assay [8] the target is T4, MPDZ_6, O75970.
T4 sequence (O75970 1003-1099, limits assumed, looked up): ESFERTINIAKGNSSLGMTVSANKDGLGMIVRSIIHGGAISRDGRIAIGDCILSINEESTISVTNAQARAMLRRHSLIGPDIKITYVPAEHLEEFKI

Assay [9] deals with T5, MPDZ_11, O75970.
T5 sequence (O75970 1720-1817, limits assumed, looked up): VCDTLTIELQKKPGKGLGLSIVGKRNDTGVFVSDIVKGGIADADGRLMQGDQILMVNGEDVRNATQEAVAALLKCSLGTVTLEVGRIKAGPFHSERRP

Assay [10] addresses RIMS1, Q86UR5.
Assay [11] concerns the target T6, USH1C_3, Q9Y6N9.
T6 sequence (Q9Y6N9 447-547, limits assumed, looked up): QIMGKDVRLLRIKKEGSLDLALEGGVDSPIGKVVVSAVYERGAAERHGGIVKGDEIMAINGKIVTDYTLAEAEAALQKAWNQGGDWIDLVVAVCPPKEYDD

Assay [12] has as its target T7, TJP3_1, O95049.
T7 sequence (O95049 6-103, limits assumed, looked up): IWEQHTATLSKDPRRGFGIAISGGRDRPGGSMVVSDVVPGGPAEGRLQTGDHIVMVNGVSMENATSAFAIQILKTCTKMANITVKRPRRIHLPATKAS

The target in assay [13] is Inadl_7, Q8NI35.
Chain of Inadl_7, Q8NI35 (Q8NI35 1219-1332): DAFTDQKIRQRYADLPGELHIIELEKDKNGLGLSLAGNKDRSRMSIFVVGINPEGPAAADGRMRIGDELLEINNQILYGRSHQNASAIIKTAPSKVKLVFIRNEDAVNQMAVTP
In assay [14] the target is T8, DVL1, O14640.
T8 sequence (O14640 246-333, limits assumed, looked up): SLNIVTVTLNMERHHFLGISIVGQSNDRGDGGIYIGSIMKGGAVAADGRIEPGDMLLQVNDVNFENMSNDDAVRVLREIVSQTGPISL

Assay [15] addresses T9, PTPN13_4, Q12923.
T9 sequence (Q12923 1783-1878, limits assumed, looked up): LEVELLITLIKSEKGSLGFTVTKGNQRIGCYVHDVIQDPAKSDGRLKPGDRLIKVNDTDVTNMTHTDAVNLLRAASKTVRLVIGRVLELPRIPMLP

The target of assay [16] is T10, MPDZ_13, O75970.
T10 sequence (O75970 1982-2070, limits assumed, looked up): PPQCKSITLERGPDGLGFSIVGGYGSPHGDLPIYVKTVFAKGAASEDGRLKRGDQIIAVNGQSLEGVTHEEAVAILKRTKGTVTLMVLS

The target of assay [17] is T11, SIPA1L3, O60292.
T11 sequence (O60292 961-1052, limits assumed, looked up): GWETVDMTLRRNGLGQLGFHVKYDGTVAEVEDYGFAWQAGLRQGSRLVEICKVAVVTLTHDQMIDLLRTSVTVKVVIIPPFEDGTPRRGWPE

Assay [18] concerns the target MAGI1_5, Q96QZ7.
Assay [19] addresses DLG5_2, Q8TDM6.
In assay [20] the target is MAGI3_6, Q5TCQ9.
Chain of MAGI3_6, Q5TCQ9 (Q5TCQ9 1014-1103): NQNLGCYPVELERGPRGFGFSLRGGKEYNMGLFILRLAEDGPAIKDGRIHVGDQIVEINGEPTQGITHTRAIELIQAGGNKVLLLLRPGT
Assay [21] deals with T12, NHERF3_2, Q5T2W1.
T12 sequence (Q5T2W1 129-225, limits assumed, looked up): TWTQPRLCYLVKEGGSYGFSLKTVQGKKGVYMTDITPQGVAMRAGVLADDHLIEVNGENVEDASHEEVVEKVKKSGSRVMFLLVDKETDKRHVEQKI

Assay [22] deals with T13, USH1C_2, Q9Y6N9.
T13 sequence (Q9Y6N9 206-303, limits assumed, looked up): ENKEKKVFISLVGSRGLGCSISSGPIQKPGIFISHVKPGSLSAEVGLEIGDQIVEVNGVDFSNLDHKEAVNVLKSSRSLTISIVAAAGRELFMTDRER

Assay [23] has as its target SDCBP_1, O00560.
Assay [24] deals with T14, PDZD2_1, O15018.
T14 sequence (O15018 80-192, limits assumed, looked up): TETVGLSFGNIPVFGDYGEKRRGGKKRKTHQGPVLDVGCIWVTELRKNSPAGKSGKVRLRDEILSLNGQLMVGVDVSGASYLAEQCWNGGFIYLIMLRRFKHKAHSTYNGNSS

Chain of MAGI1_5, Q96QZ7 (Q96QZ7 986-1098): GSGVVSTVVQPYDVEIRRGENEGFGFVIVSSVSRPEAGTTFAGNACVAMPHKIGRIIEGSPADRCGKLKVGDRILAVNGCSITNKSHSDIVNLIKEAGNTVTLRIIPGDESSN
Chain of DLG5_2, Q8TDM6 (Q8TDM6 714-800): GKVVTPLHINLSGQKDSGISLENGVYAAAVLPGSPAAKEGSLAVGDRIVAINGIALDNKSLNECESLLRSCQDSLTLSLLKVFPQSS
Chain of RIMS1, Q86UR5 (Q86UR5 584-692): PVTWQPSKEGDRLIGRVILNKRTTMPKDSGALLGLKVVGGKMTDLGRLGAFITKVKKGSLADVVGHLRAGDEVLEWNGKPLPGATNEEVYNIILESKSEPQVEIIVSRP
Chain of CNKSR3, Q6P9H4 (Q6P9H4 203-303): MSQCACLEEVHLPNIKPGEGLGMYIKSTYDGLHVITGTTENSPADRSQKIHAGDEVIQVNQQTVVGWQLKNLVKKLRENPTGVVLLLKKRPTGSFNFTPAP
Chain of SDCBP_1, O00560 (O00560 111-198): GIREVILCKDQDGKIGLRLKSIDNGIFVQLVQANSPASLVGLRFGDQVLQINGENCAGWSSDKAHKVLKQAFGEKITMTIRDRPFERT
Chain of MAGI3_5, Q5TCQ9 (Q5TCQ9 847-941): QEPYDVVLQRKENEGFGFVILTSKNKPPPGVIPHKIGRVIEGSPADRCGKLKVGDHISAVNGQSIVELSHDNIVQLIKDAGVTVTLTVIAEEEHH

For the molecule NLNSSRVPDLLV [SARS-CoV2-E, P0DTC4], the negative logarithm of the Kd (pKd) result in [1] was “below the threshold”; in [2] it was “below the threshold”; in [3], 4.07; in assay [4], “below the threshold”; in [5] it was “below the threshold”; in assay [6] it was “below the threshold”. For the same molecule, the pKd entry in assay [7], in [8], in assay [9], in assay [10], in assay [11] and in assay [12] was “below the threshold” each time. The pKd entry in [13] was “below the threshold”; in [14], “below the threshold”; in assay [15] it was 4.64; in assay [16], “below the threshold”; in assay [17] it was “below the threshold”; in [18], “below the threshold”. The pKd entry in assay [19], in [20], in assay [21], in [22], in assay [23] and in assay [24] was “below the threshold” each time.
